Molecular target: high-stability mutant of the MMP-9 catalytic domain (MMP9CAT*) lacking the fibronectin-like domain (human) (UniProt P14780)
Experiment: enzyme activity inhibition assay (fluorogenic substrate, fit to the Morrison equation); apparent Ki (Ki^app); varying concentrations of N-TIMP2 incubated with 0.26 nM MMP-9CAT* for 60 min at 37 °C in 50 mM Tris-HCl, 0.15 M NaCl, 10 mM CaCl2, 0.02% Brij-35 pH 7.5; then 7.5 µM fluorogenic substrate; at least three assays for each protein

Chain of UniProt P14780 (P14780 other isoform, or with tags, fused parts or gaps mutant): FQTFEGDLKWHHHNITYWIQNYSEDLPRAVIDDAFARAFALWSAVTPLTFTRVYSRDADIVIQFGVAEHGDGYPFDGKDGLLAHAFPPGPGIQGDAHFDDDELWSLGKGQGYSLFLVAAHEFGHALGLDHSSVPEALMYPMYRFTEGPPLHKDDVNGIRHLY

Substance: WT N-TIMP2 containing internal FLAG-tag, c-myc-tag, and His-tag (domain or fragment)
- Ki: 0.32 nM

Source: PMC11429640
